The source of these data is the supplement of paper PMC9112550, “Optimization of the antimicrobial peptide Bac7 by deep mutational scanning” (BMC Biology, 2022).

The series has as its system Escherichia coli TOP10. Nature of the series: shrunken log2 fold change of peptide-encoding DNA abundance (4.5 h post-induction vs induction); higher = less antimicrobial activity (less host growth inhibition). The following applies: time post-induction: 4.5 h; library: site-saturation at positions 5, 18, 19, 20.
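Note: peptides expressed intracellularly from a pBAD plasmid library in pooled LB shake-flask culture, induced with 0.3% L-arabinose, DNA abundance read by NGS, three biological replicates, DESeq2 with apeglm shrinkage.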

In the case of RRIRPRPPRLPRPRPRPEWPPRP, the “shrunken log2 fold change” value worked out at 0.449.
The result for RRIRWRPPRLPRPRPRPTMGPRP reads 0.272; that for RRIRDRPPRLPRPRPRPHLRPRP, -0.00431; that for RRIRRRPPRLPRPRPRPCLAPRP, 0.242.
RRIRFRPPRLPRPRPRPDAGPRP: the “shrunken log2 fold change” value was 0.121.
With RRIRMRPPRLPRPRPRPTWRPRP, the “shrunken log2 fold change” value is 0.894.
On to RRIRKRPPRLPRPRPRPRCHPRP, for which the “shrunken log2 fold change” value turned out to be 0.237.
For RRIRKRPPRLPRPRPRPKKYPRP, the “shrunken log2 fold change” value is -0.149.
Regarding RRIRPRPPRLPRPRPRPEKHPRP, the “shrunken log2 fold change” value stood at 0.418.
RRIRHRPPRLPRPRPRPVMHPRP: the “shrunken log2 fold change” value stood at 0.000945.
The value for RRIRGRPPRLPRPRPRPFDAPRP was -0.00556; that for RRIRARPPRLPRPRPRPCLYPRP was 0.137.
Take RRIRCRPPRLPRPRPRPERGPRP: the “shrunken log2 fold change” value turned out to be 0.472.
Turning to RRIRMRPPRLPRPRPRPRKIPRP, the “shrunken log2 fold change” value was found to be 0.322.
The value for RRIRHRPPRLPRPRPRPDILPRP was -0.0904.
With RRIRHRPPRLPRPRPRPIEKPRP, the “shrunken log2 fold change” value is -0.00776.
On to RRIRDRPPRLPRPRPRPYCSPRP, for which the “shrunken log2 fold change” value was -0.335.
For the sequence RRIRLRPPRLPRPRPRPGQPPRP, the “shrunken log2 fold change” value came out at 0.187.
Consider RRIRRRPPRLPRPRPRPWFKPRP, for which the “shrunken log2 fold change” value is -0.139.
For RRIRDRPPRLPRPRPRPSKNPRP, the “shrunken log2 fold change” value is -0.106.
Turning to RRIRFRPPRLPRPRPRPYAYPRP, the “shrunken log2 fold change” value was -0.0128.
As for RRIRGRPPRLPRPRPRPHNKPRP, the “shrunken log2 fold change” value is -0.09.
RRIRRRPPRLPRPRPRPVMRPRP: the “shrunken log2 fold change” value was found to be 0.714.
The value for RRIRWRPPRLPRPRPRPGPCPRP was 0.101; that for RRIRLRPPRLPRPRPRPIWTPRP was 0.0256; that for RRIRGRPPRLPRPRPRPCCSPRP was 0.107.
For RRIRKRPPRLPRPRPRPGASPRP, the “shrunken log2 fold change” value came out at 0.787.
The result for RRIRARPPRLPRPRPRPKHYPRP reads -0.277; that for RRIRGRPPRLPRPRPRPHVKPRP, -0.0605; that for RRIRGRPPRLPRPRPRPLMDPRP, 1.04.
Consider RRIRDRPPRLPRPRPRPFMMPRP, for which the “shrunken log2 fold change” value is -0.265.
The value for RRIRFRPPRLPRPRPRPADAPRP was 0.147.
Consider RRIRMRPPRLPRPRPRPRPAPRP, for which the “shrunken log2 fold change” value worked out at 1.51.
Turning to RRIRIRPPRLPRPRPRPDILPRP, the “shrunken log2 fold change” value was -0.354.
Turning to RRIRHRPPRLPRPRPRPPGYPRP, the “shrunken log2 fold change” value was found to be 0.0632.
RRIRFRPPRLPRPRPRPHKTPRP: the “shrunken log2 fold change” value is -0.0597.
As to RRIRYRPPRLPRPRPRPQDHPRP, the “shrunken log2 fold change” value turned out to be 0.0457.
Consider RRIRDRPPRLPRPRPRPPVEPRP, for which the “shrunken log2 fold change” value was -0.0332.
Regarding RRIRTRPPRLPRPRPRPKSCPRP, the “shrunken log2 fold change” value is -0.0893.
As to RRIRQRPPRLPRPRPRPPVAPRP, the “shrunken log2 fold change” value came out at 0.121.
With RRIRMRPPRLPRPRPRPDHNPRP, the “shrunken log2 fold change” value is -0.00429.
In the case of RRIRRRPPRLPRPRPRPGNNPRP, the “shrunken log2 fold change” value was -0.365.
On to RRIRARPPRLPRPRPRPIQIPRP, for which the “shrunken log2 fold change” value is -0.103.
Turning to RRIRVRPPRLPRPRPRPHNQPRP, the “shrunken log2 fold change” value is -0.471.
As for RRIRYRPPRLPRPRPRPYFKPRP, the “shrunken log2 fold change” value was -1.83.
Take RRIRTRPPRLPRPRPRPCRAPRP: the “shrunken log2 fold change” value is -0.0539.
As for RRIRRRPPRLPRPRPRPYQHPRP, the “shrunken log2 fold change” value is -0.983.
For RRIRPRPPRLPRPRPRPAMIPRP, the “shrunken log2 fold change” value was -0.26.
Take RRIRHRPPRLPRPRPRPARPPRP: the “shrunken log2 fold change” value was 0.502.
RRIRLRPPRLPRPRPRPDRGPRP: the “shrunken log2 fold change” value worked out at 0.0151.
As to RRIRRRPPRLPRPRPRPPQEPRP, the “shrunken log2 fold change” value turned out to be 0.405.
On to RRIRWRPPRLPRPRPRPCVVPRP, for which the “shrunken log2 fold change” value was 0.0549.
On to RRIRARPPRLPRPRPRPPMSPRP, for which the “shrunken log2 fold change” value worked out at 0.414.
As to RRIRTRPPRLPRPRPRPEEVPRP, the “shrunken log2 fold change” value was -0.0075.
As for RRIRHRPPRLPRPRPRPHIPPRP, the “shrunken log2 fold change” value was -0.514.
For the sequence RRIRRRPPRLPRPRPRPEECPRP, the “shrunken log2 fold change” value worked out at 0.00164.
The result for RRIRRRPPRLPRPRPRPPRPPRP reads 1.01.
On to RRIRFRPPRLPRPRPRPNYTPRP, for which the “shrunken log2 fold change” value was -1.07.
Turning to RRIRVRPPRLPRPRPRPESDPRP, the “shrunken log2 fold change” value came to 0.0889.
Consider RRIRMRPPRLPRPRPRPGPLPRP, for which the “shrunken log2 fold change” value worked out at 0.532.
Turning to RRIRSRPPRLPRPRPRPCSSPRP, the “shrunken log2 fold change” value was -0.134.
Turning to RRIRDRPPRLPRPRPRPWRDPRP, the “shrunken log2 fold change” value is -0.0505.
On to RRIRYRPPRLPRPRPRPLVWPRP, for which the “shrunken log2 fold change” value is 0.00227.
With RRIRARPPRLPRPRPRPISRPRP, the “shrunken log2 fold change” value stood at 0.354.
On to RRIRFRPPRLPRPRPRPPMFPRP, for which the “shrunken log2 fold change” value was -0.0657.
Consider RRIRERPPRLPRPRPRPPKTPRP, for which the “shrunken log2 fold change” value was -0.124.
As to RRIRKRPPRLPRPRPRPYIMPRP, the “shrunken log2 fold change” value was -0.153.
Take RRIRRRPPRLPRPRPRPGWTPRP: the “shrunken log2 fold change” value is 0.326.
As for RRIRNRPPRLPRPRPRPMEHPRP, the “shrunken log2 fold change” value was determined as 0.0201.
On to RRIRRRPPRLPRPRPRPWHGPRP, for which the “shrunken log2 fold change” value was -0.202.
On to RRIRARPPRLPRPRPRPSISPRP, for which the “shrunken log2 fold change” value was determined as 0.0682.
With RRIRVRPPRLPRPRPRPLGGPRP, the “shrunken log2 fold change” value was determined as 0.27.
With RRIRMRPPRLPRPRPRPARFPRP, the “shrunken log2 fold change” value is 0.251.
The value for RRIRLRPPRLPRPRPRPFNSPRP was -0.431; that for RRIRARPPRLPRPRPRPNMPPRP was -0.0377; that for RRIRPRPPRLPRPRPRPKMVPRP was 0.0319.
Regarding RRIRLRPPRLPRPRPRPDSMPRP, the “shrunken log2 fold change” value is -0.166.
Turning to RRIRCRPPRLPRPRPRPNFRPRP, the “shrunken log2 fold change” value turned out to be 0.0821.
In the case of RRIRNRPPRLPRPRPRPIESPRP, the “shrunken log2 fold change” value is -0.00107.
As for RRIRGRPPRLPRPRPRPGFYPRP, the “shrunken log2 fold change” value was 0.512.
The result for RRIRQRPPRLPRPRPRPLAVPRP reads 0.0758.
The result for RRIRSRPPRLPRPRPRPERRPRP reads 0.23; that for RRIRTRPPRLPRPRPRPAAAPRP, 0.618; that for RRIRCRPPRLPRPRPRPSPGPRP, 0.0883.
On to RRIRTRPPRLPRPRPRPMTWPRP, for which the “shrunken log2 fold change” value stood at 0.0637.
For RRIRARPPRLPRPRPRPDGDPRP, the “shrunken log2 fold change” value was -0.036.
Take RRIRARPPRLPRPRPRPHARPRP: the “shrunken log2 fold change” value was determined as 0.156.
The value for RRIRSRPPRLPRPRPRPHLKPRP was -0.137; that for RRIRCRPPRLPRPRPRPYQHPRP was -0.381.
Turning to RRIRYRPPRLPRPRPRPFVVPRP, the “shrunken log2 fold change” value is -0.786.
On to RRIRPRPPRLPRPRPRPRCAPRP, for which the “shrunken log2 fold change” value was found to be 1.73.
Regarding RRIRFRPPRLPRPRPRPEFMPRP, the “shrunken log2 fold change” value is -0.109.
RRIRTRPPRLPRPRPRPYMSPRP: the “shrunken log2 fold change” value was -0.0144.
As for RRIRGRPPRLPRPRPRPSIFPRP, the “shrunken log2 fold change” value amounted to 0.415.
Regarding RRIRIRPPRLPRPRPRPGIDPRP, the “shrunken log2 fold change” value is -0.00862.
For RRIRKRPPRLPRPRPRPNKYPRP, the “shrunken log2 fold change” value is -0.168.
The result for RRIRFRPPRLPRPRPRPLGKPRP reads -0.17.
For the sequence RRIRSRPPRLPRPRPRPRYCPRP, the “shrunken log2 fold change” value was -0.483.
The value for RRIRMRPPRLPRPRPRPFDDPRP was 0.243.
For the sequence RRIRQRPPRLPRPRPRPCWQPRP, the “shrunken log2 fold change” value is -0.0325.
As to RRIRVRPPRLPRPRPRPHPAPRP, the “shrunken log2 fold change” value was 0.296.
Consider RRIRCRPPRLPRPRPRPGAPPRP, for which the “shrunken log2 fold change” value turned out to be 0.734.
With RRIRVRPPRLPRPRPRPTYGPRP, the “shrunken log2 fold change” value was -0.838.
As to RRIRHRPPRLPRPRPRPNKIPRP, the “shrunken log2 fold change” value is -0.622.
For the sequence RRIRARPPRLPRPRPRPMAMPRP, the “shrunken log2 fold change” value stood at 0.282.
Take RRIRIRPPRLPRPRPRPETYPRP: the “shrunken log2 fold change” value was -0.263.
Consider RRIRYRPPRLPRPRPRPNNHPRP, for which the “shrunken log2 fold change” value is -1.1.
The result for RRIRYRPPRLPRPRPRPYSVPRP reads -0.0202; that for RRIRFRPPRLPRPRPRPNEWPRP, 0.0686.
For the sequence RRIRCRPPRLPRPRPRPHDRPRP, the “shrunken log2 fold change” value was -0.0905.
RRIRMRPPRLPRPRPRPYEYPRP: the “shrunken log2 fold change” value is 0.0662.
Regarding RRIRQRPPRLPRPRPRPGWQPRP, the “shrunken log2 fold change” value was -0.00211.
On to RRIRQRPPRLPRPRPRPLWMPRP, for which the “shrunken log2 fold change” value is -0.165.
In the case of RRIRKRPPRLPRPRPRPVEHPRP, the “shrunken log2 fold change” value was determined as 0.455.
Consider RRIRYRPPRLPRPRPRPLTCPRP, for which the “shrunken log2 fold change” value is -0.566.
The value for RRIRSRPPRLPRPRPRPEPMPRP was 0.54.
The result for RRIRTRPPRLPRPRPRPPADPRP reads 0.217; that for RRIRVRPPRLPRPRPRPNNHPRP, -0.454; that for RRIRSRPPRLPRPRPRPYEFPRP, -0.438.
Regarding RRIRRRPPRLPRPRPRPAGRPRP, the “shrunken log2 fold change” value came to 0.41.
On to RRIRQRPPRLPRPRPRPQDRPRP, for which the “shrunken log2 fold change” value is -0.254.
Turning to RRIRIRPPRLPRPRPRPSKFPRP, the “shrunken log2 fold change” value was -0.245.
Consider RRIRIRPPRLPRPRPRPMIHPRP, for which the “shrunken log2 fold change” value is -0.363.
The result for RRIRARPPRLPRPRPRPQCKPRP reads -0.077.
In the case of RRIRLRPPRLPRPRPRPLEWPRP, the “shrunken log2 fold change” value was 0.0509.
